# From patent US20190309079A1
# Columns and labels:
# [1] = biological target: extracellular domain portion of LEPR protein expressed with a C-terminal human Fc tag (hLEPR.hFc) (human); experiment: blocking ELISA, hLeptin coated
# [2] = biological target: human LEPR CRH1 (D1)-MMH (human) (UniProt P48357); experiment: Luminex, myc-captured protein on beads
# [3] = biological target: extracellular domain of human LEPR (amino acids 22-839 of P48357, Isoform B) with N-terminal myc-myc tag, GPI-anchored on HEK293 cells (HEK293/hLEPR-GPI) (human) (UniProt P48357); experiment: FACS, 10 nM Ab, HEK293/hLEPR-GPI, 1 uM Leptin
# Chain of extracellular domain of human LEPR (amino acids 22-839 of P48357, Isoform B) with N-terminal myc-myc tag, GPI-anchored on HEK293 cells (HEK293/hLEPR-GPI) (human) (P48357 22-839, one chain of several): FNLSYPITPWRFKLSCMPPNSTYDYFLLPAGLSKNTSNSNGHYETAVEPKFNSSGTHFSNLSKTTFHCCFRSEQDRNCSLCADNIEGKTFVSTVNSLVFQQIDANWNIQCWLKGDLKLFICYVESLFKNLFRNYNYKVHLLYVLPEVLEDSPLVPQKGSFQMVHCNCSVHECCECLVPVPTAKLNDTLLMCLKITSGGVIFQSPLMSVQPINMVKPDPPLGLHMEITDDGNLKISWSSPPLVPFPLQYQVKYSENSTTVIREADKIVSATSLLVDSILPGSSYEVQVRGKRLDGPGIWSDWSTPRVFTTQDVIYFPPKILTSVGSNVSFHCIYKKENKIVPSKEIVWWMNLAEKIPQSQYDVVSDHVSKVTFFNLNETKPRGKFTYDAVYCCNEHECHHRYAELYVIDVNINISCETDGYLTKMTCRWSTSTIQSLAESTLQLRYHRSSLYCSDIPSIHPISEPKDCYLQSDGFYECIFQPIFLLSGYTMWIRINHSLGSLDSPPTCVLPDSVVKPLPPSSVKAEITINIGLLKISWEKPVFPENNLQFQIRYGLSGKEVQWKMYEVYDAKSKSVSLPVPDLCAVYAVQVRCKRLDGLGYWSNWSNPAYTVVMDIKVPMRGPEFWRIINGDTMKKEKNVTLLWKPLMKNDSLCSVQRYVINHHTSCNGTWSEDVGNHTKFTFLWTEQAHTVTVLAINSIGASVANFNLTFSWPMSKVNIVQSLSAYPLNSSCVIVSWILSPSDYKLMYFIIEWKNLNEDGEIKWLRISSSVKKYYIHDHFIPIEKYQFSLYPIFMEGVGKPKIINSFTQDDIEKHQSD
# [4] = biological target: extracellular domain of human LEPR (amino acids 22-839 of P48357, Isoform B) with N-terminal myc-myc tag, GPI-anchored on HEK293 cells (HEK293/hLEPR-GPI) (human) (UniProt P48357); experiment: FACS, 10 nM Ab, HEK293/hLEPR-GPI, no added Leptin
# [5] = biological target: Macaca fascicularis LEPR extracellular domain expressed with a C-terminal myc-myc-hexahistidine tag (mfLEPR.mmh) (Macaca fascicularis); experiment: SPR, captured mAb, 37C
# Chain of Macaca fascicularis LEPR extracellular domain expressed with a C-terminal myc-myc-hexahistidine tag (mfLEPR.mmh) (Macaca fascicularis) (Q9MYL0 other isoform, or with tags, fused parts or gaps): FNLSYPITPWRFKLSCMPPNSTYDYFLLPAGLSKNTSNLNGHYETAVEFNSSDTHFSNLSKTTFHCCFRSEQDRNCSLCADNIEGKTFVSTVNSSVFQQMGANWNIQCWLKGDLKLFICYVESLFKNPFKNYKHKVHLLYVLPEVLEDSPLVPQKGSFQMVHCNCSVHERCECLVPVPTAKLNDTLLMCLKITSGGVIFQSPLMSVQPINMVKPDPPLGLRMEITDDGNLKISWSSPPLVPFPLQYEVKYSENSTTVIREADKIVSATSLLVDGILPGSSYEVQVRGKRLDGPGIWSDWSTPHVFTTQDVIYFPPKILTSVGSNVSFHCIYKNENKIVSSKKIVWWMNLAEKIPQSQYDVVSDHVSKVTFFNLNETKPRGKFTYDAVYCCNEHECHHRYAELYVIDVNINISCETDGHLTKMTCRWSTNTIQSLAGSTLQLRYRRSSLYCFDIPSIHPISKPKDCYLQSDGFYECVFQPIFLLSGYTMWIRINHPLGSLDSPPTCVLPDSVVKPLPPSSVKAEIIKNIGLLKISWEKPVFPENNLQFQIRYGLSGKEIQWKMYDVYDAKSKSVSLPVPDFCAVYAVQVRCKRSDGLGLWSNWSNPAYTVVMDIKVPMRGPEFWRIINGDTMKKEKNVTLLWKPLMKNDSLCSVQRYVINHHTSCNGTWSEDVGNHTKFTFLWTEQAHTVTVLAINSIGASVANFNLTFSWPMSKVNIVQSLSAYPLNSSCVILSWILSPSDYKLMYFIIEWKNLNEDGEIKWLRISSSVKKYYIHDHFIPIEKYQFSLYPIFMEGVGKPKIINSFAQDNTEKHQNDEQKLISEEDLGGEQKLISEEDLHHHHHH
# [6] = biological target: human LEPR extracellular domain expressed with a C-terminal mouse IgG2a Fc tag (hLEPR.mFc) (human); experiment: SPR, captured mAb, 37C
# Chain of human LEPR extracellular domain expressed with a C-terminal mouse IgG2a Fc tag (hLEPR.mFc) (human) (chain, as listed by the source limits assumed): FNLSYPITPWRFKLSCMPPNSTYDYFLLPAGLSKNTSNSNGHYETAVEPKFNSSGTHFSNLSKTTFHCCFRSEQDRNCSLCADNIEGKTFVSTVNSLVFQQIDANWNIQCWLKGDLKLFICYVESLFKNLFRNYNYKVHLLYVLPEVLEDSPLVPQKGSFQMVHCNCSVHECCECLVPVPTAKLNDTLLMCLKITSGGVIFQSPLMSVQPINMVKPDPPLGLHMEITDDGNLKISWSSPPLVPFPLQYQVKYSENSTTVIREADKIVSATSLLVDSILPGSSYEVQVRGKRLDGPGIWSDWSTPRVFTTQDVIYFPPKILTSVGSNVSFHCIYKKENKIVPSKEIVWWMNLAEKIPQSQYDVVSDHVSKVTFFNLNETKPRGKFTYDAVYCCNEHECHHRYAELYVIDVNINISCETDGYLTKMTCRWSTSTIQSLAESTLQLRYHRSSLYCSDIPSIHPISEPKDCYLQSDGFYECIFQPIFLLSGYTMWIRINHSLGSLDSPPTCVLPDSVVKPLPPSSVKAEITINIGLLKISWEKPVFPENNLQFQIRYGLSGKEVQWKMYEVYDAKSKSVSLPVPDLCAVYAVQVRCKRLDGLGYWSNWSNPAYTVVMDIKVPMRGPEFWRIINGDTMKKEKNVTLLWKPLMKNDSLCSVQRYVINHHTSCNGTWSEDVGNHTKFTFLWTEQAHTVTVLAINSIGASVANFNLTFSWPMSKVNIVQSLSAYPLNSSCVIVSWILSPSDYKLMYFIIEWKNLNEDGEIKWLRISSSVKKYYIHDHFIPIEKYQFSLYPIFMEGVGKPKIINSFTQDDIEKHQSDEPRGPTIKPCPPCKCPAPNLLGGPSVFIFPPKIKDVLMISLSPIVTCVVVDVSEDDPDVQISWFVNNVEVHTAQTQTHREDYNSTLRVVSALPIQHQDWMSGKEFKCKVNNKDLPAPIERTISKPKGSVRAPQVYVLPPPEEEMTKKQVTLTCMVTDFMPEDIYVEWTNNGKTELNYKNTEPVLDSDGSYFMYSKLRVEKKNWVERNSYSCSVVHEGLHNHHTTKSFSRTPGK
# [7] = biological target: human LEPR extracellular domain expressed with a C-terminal myc-myc-hexahistidine tag (hLEPR.mmh) (human) (UniProt P48357); experiment: SPR, captured mAb, 37C
# Chain of human LEPR extracellular domain expressed with a C-terminal myc-myc-hexahistidine tag (hLEPR.mmh) (human) (P48357 other isoform, or with tags, fused parts or gaps): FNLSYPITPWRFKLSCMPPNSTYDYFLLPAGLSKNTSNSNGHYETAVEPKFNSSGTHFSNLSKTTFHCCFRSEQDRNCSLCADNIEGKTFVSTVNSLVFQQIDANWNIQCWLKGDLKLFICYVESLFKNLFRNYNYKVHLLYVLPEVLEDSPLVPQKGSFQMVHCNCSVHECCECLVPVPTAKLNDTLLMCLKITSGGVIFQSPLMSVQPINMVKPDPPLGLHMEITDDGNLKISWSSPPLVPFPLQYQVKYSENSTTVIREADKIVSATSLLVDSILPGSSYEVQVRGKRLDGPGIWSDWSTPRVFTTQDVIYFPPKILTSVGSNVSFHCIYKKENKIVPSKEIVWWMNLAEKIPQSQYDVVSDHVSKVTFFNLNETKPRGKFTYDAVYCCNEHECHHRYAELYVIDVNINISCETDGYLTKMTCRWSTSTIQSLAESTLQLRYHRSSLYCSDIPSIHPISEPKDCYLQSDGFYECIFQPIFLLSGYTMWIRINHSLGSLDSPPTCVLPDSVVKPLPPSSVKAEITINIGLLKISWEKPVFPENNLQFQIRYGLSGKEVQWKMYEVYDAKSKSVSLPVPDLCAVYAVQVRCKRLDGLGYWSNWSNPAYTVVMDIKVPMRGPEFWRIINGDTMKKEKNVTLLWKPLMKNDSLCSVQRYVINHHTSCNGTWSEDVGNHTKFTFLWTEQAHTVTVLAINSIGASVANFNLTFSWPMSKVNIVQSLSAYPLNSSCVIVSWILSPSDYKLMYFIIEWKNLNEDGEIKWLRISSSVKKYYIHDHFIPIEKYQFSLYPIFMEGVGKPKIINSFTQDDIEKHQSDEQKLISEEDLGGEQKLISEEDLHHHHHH
# [8] = biological target: Macaca fascicularis LEPR extracellular domain expressed with a C-terminal myc-myc-hexahistidine tag (mfLEPR.mmh) (Macaca fascicularis); experiment: SPR, captured mAb, 25C
# [9] = biological target: human LEPR extracellular domain expressed with a C-terminal mouse IgG2a Fc tag (hLEPR.mFc) (human); experiment: SPR, captured mAb, 25C
# [10] = biological target: human LEPR extracellular domain expressed with a C-terminal myc-myc-hexahistidine tag (hLEPR.mmh) (human) (UniProt P48357); experiment: SPR, captured mAb, 25C
# [11] = biological target: extracellular domain of human LEPR (amino acids 22-839 of P48357, Isoform B) with N-terminal myc-myc tag, GPI-anchored on HEK293 cells (HEK293/hLEPR-GPI) (human) (UniProt P48357); experiment: FACS, 70 nM Ab, HEK293/hLEPR-GPI, no Leptin
# [12] = biological target: full length human LEPR (amino acids 1-1165 of P48357, Isoform B) on cells (human) (UniProt P48357); experiment: FACS, 70 nM Ab, HEK293/Stat3-luc/hLEPR-FL, no Leptin
# [13] = biological target: extracellular domain of human LEPR (amino acids 22-839 of P48357, Isoform B) with N-terminal myc-myc tag, GPI-anchored on HEK293 cells (HEK293/hLEPR-GPI) (human) (UniProt P48357); experiment: FACS, HEK293/hLEPR-GPI, no Leptin
# [14] = biological target: extracellular domain of human LEPR (amino acids 22-839 of P48357, Isoform B) with N-terminal myc-myc tag, GPI-anchored on HEK293 cells (HEK293/hLEPR-GPI) (human) (UniProt P48357); experiment: FACS, HEK293/hLEPR-GPI, 1 uM Leptin
# [15] = biological target: extracellular domain of human LEPR (amino acids 22-839 of P48357, Isoform B) with N-terminal myc-myc tag, GPI-anchored on HEK293 cells (HEK293/hLEPR-GPI) (human) (UniProt P48357); experiment: FACS, HEK293/hLEPR-GPI, no added Leptin
# [16] = biological target: full length human LEPR (amino acids 1-1165 of P48357, Isoform B) on cells (human) (UniProt P48357); experiment: FACS, HEK293/Stat3-luc/hLEPR-FL, no Leptin
# Chain of extracellular domain portion of LEPR protein expressed with a C-terminal human Fc tag (hLEPR.hFc) (human) (chain, as listed by the source limits assumed): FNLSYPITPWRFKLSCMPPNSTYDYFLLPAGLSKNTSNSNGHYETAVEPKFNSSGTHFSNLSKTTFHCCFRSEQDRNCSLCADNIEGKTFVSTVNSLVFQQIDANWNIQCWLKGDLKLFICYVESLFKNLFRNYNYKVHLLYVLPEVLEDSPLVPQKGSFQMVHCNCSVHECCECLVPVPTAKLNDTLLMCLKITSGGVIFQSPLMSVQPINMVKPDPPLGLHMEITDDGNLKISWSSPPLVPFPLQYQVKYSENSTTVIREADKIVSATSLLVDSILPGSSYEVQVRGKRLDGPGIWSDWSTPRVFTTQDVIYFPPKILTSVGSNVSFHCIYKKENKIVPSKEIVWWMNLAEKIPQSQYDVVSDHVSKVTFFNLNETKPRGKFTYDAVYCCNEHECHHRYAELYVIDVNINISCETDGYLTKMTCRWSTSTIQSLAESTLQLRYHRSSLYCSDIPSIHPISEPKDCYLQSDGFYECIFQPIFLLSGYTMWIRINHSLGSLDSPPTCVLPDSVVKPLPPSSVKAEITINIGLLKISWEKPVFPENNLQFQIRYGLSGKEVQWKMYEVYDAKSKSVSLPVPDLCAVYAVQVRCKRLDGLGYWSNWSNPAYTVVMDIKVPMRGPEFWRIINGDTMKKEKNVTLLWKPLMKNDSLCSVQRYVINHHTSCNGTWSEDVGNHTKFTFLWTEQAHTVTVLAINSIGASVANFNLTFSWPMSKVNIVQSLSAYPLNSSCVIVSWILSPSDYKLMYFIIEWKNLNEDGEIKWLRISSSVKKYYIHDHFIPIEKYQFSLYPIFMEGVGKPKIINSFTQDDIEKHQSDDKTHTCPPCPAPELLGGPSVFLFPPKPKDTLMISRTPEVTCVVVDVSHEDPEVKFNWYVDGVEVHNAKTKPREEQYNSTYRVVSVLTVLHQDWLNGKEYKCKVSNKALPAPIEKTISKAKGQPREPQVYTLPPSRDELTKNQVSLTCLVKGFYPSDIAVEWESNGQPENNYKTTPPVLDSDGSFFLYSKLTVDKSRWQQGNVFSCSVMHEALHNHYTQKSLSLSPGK
# Chain of human LEPR CRH1 (D1)-MMH (human) (P48357 22-229 limits assumed): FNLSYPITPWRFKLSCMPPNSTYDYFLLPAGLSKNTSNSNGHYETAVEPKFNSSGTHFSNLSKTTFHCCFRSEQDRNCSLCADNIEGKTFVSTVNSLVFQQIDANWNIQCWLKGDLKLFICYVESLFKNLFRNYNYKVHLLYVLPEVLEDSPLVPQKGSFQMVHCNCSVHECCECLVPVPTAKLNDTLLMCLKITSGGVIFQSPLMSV
substance,measurement,setting,value
Comparator mAb (Fab9F8 described in Fazeli et al. 2006 and Carpenter et al. 2012) (antibody),500 nM Ab Blocking of 10 nM hLEPR.hFc Binding to hLeptin (% blockade),[1],99%
same,Luminex MFI,[2],14 MFI
same,Binding Ratio (normalized to unstained),[3],112 fold
same,Binding Ratio (normalized to unstained),[4],2350 fold
Mouse IgG2a Isotype control (antibody),500 nM Ab Blocking of 10 nM hLEPR.hFc Binding to hLeptin (% blockade),[1],32%
Isotype Control monoclonal antibody,100 nM mfLEPR.MMH Bound (RU),[5],1 RU
same,100 nM hLEPR-mFc Bound (RU),[6],1 RU
same,100 nM hLEPR-MMH Bound (RU),[7],6 RU
same,100 nM mfLEP.MMH Bound (RU),[8],0 RU
same,100 nM hLEPR-mFc Bound (RU),[9],-2 RU
same,100 nM hLEPR-mmH Bound (RU),[10],4 RU
same,500 nM Ab Blocking of 10 nM hLEPR.hFc Binding to hLeptin (% blockade),[1],-3%
same,Binding Ratio (normalized to unstained),[11],2 fold
same,Binding Ratio (normalized to unstained),[3],4 fold
same,Binding Ratio (normalized to unstained),[4],6 fold
same,Binding Ratio (normalized to unstained),[12],2 fold
"Alexa Fluor-647 conjugated secondary antibody (Jackson ImmunoResearch Laboratories Inc., #109-547-003), alone",Binding Ratio (normalized to unstained),[13],1 fold
same,Binding Ratio (normalized to unstained),[14],3 fold
same,Binding Ratio (normalized to unstained),[15],3 fold
same,Binding Ratio (normalized to unstained),[16],1 fold
